The supplement of paper PMC10567573

B1: ADD1 (parent)
chain: FASDGDSGTCSPLRHSFQKQQREK
B2: TFE3 (parent)
chain: FHLGLEDILMEEEEGVVGGLSGGA

Variants of: B1
Assay: protein stability index of a GFP-peptide fusion (GPS, HEK-293T) (PSI 1-6); higher = more stable
Conditions: c terminus: a fixed tail appended
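Also: lentivirally expressed fusions sorted by FACS into six bins by GFP to DsRed ratio, PSI derived from sequencing read proportions per bin multiplied by bin number.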

Protein stability index, by site and new letter:
L13: I 3.97, M 4.02, D 4.72, F 2.39, N 4.26, V 5, H 5.09, G 4.22, Q 4.95, T 4.98, A 4.98, S 4.55, Y 2.13, P 4.1, C 4.25, E 4.89, K 4.57, R 5.28
R22: S 4.21, L 3.27, T 3.48, Y 4.09, Q 3.84, C 3.57, F 3.63, K 4.57, V 3.35, E 4.23, D 4.51, A 3.68, W 3.28, M 3.77, N 3.42, H 3.84, P 3.57, G 4.24, I 3.68
Q21: C 3.57, V 3.06, H 3.4, L 3.26, P 3.67, A 3.85, S 3.64, K 3.75, N 4.04, G 3.94, W 3.49, D 2.81, I 3.42, T 3.99, E 3.84, F 3.89, R 3.75, M 3.48, Y 3.17
Q20: E 4.16, W 3.22, H 3.71, P 3.65, D 4.23, I 3.2, L 2.69, A 4.18, Y 2.65, N 3.65, V 3.71, R 4.05, C 2.97, G 3.98, K 3.96, T 4.07, S 4.55, M 3.07, F 2.8
Q18: L 3.73, F 3.16, H 3.13, C 2.62, I 3.33, V 2.97, W 1.62, P 3.84, K 3.31, E 3.88, G 3.33, T 3.4, A 2.75, D 3.83, Y 3.31, S 3.52, R 3.81, M 3.13, N 4
P12: M 4.39, I 3.37, L 3.88, S 3.67, G 4.73, E 3.93, A 4.76, Q 4.79, C 2.73, V 3.89, N 4.95, K 3.3, R 4.6, Y 3.86, T 4.59, H 3.91, F 3.02, D 4.34
S11: D 4.04, N 1.87, Y 3.92, M 3.75, I 3.79, A 3.9, G 4.35, C 3.16, E 4.5, L 3.94, H 2.62, Q 4.25, K 4.45, V 4.58, P 4.62, F 3.17, T 4.53, W 2.17, R 4.39
K24: D 3.83, F 2.96, N 3.57, Q 3.82, S 3.4, L 3.15, E 4.01, M 2.46, Y 2.83, W 3.08, T 3.88, R 3.14, P 3.42, A 2.92, C 3.41, G 3.41, V 3.13, I 3.17, H 3.25
H15: P 4.01, F 3.01, E 4.34, C 2.62, Q 3.44, D 5.02, W 2.39, I 3.5, A 3.83, K 4.1, L 3.21, V 2.93, G 3.29, Y 3.44, S 4.22, T 4.16, R 3.45, N 4.41, M 2.88
S16: Q 4.27, C 2.24, L 3.17, N 4.35, W 2.75, Y 3.88, I 1.99, H 4.27, R 3.89, V 2.31, A 3.52, P 2.28, F 2.84, D 4.82, M 2.46, G 3.54, K 4.59
R14: C 3.52, L 3.66, N 4.46, H 3.98, G 4.11, S 4.45, M 4.27, T 4.8, D 4.75, Q 3.6, E 4.64, P 5.13, Y 1.94, I 4.52, V 3.97, A 4.18, W 4.02, K 4.55
F17: S 4.47, L 4.71, N 4.42, I 3.87, E 4.34, Y 3.79, W 3.72, C 4.17, P 4.82, H 3.65, Q 4.52, A 3.68, R 4.1, T 3.46, G 3.44, K 3.95, D 4.62, M 3.95, V 3.71
C10: V 3.85, Q 4.13, Y 1.63, R 4.07, S 4.78, T 4.44, P 3.65
E23: G 3.21, Q 4.04, A 3.7, Y 3.25, I 2.76, N 3.6, R 3.79, W 2.94, S 3.66, F 2.74, V 3.58, T 3.67, D 3.11, C 3.37, K 4.34, L 3.57, P 3.29, H 3.66
K19: R 3.19, F 3.01, L 2.76, S 3.23, C 1.66, P 3.09, N 3.08, G 3.54, D 3.61, E 3.71, A 2.85, Y 3.62, Q 4.53, W 1.8, H 4.43, M 3.61, I 3.17, T 3.11

Variants of: B2
Assay: as above
Conditions: c terminus: a fixed tail appended

Protein stability index of substitutions, site by site:
F1: Y 4.24, P 4.88, R 4.44
H2: G 4.41
V17: L 3.61, G 3.15, Q 3.69
G15: T 3.51
L9: Y 3.87, A 4.22, G 4.43, D 4, Q 4.39, K 4.17, H 4.08
E13: W 2.18, Y 2.11
L3: R 4.14, N 4.17
L5: A 4.62, C 4.36, T 4.23
G4: L 2.46, H 2.94, Y 1.86, V 2.13, Q 3.54, A 2.97, I 2.1
I8: Y 3.99, M 3.58
E14: F 1.78, Q 2.98, N 2.72, W 1.43
G22: W 2.85, E 4.01
G18: I 3.35
M10: A 4, Q 4.34
S21: P 3.35, C 3.48, D 3.95, T 3.54
E11: G 2.61
A24: W 1.75, E 3.9
E6: I 1.88, S 2.82, C 2.55, G 2.58, H 2.86
E12: P 2.43, D 3.77, H 3.09, F 2.14, A 2.6, N 3.01
G23: P 4
G19: Y 2.67, Q 4.09, R 3.54, V 3.22, N 3.84, P 3.52
L20: H 4.24, W 3.02
V16: Q 4.29
